Measured values from the supplement of paper PMC12764529.
± gives the half width of the 95% confidence interval.

assay: folding stability dG unfold from trypsin proteolysis; higher = more stable
Procedure, shortened: (§1)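 Only designs with AlphaFold2 dimer inter-PAE above 15 were retained; each was a mini-protein under 80 residues with no cysteine, in a PA-tagged cDNA display construct. After digestion with trypsin and chymotrypsin and sequencing, K50 was inferred by Bayesian fitting of counts, and unfolding free energy was derived per protease or combined against a sequence-predicted unfolded-state K50 and a shared folded-state K50.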

Row | Sequence | folding stability dG unfold
1 | SAGKKTIIIKIPPNMTVEELKKALKNLKPNEKVTITVNGKKYTITVKDGKIKITFPENVKNMILIIEVKSAG [r5_373_TrROS_Hall] | 8.72 ± 0.544 kJ/mol
2 | SAGGSAGGSAGTIVITQSPDGTWRAYYEDGTAEEFDSIDDLKKALEEHYPDAKTVIFKPASAGGSAGGSAGG [r11_806_TrMRF] | 13.9 ± 0.628 kJ/mol
3 | SAGGSAGGSAGKEIIKNIPKGVKVLKIEPLPGKSGTYVKIEVEFPDPNGVKHRLTFIAPESAGGSAGGSAGG [r17_140_TrMRF] | 2.8 ± 0.628 kJ/mol
4 | SMKPGDKLLIRIRLPPVKVEREYFDKDGKLVKKETKEVKEVELVIELSPEELEKLRELLKELGFEVEILPSA [r9_167_TrROS_Hall] | 11.8 ± 0.669 kJ/mol
5 | SAGGSAGGSSGTVTLRLRFRVVDLDPATGEASEHEFELTLTVPIELPAAAPPATPTYGLTLPGSAGGSAGGS [r12_140_TrMRF] | 3.75 ± 0.502 kJ/mol
6 | SASPALELAKEIAEKIEPLFPDISPVEVTVTPRGSTALGTIKFKRPDGKELVAKMIVSAGGDPVEIILLSAG [r14_719_JUSTAS] | 6.52 ± 0.586 kJ/mol
7 | SAGGDWMLVIEIEIEGQPTPDGQIKVEISIEIELVRPPPPPITPWDRMAEEARDKNPNIPPDDPEAMTSAGG [r13_136_TrROS] | 8.86 ± 0.46 kJ/mol
8 | SAGGMKVTTKPLPSDSEVVDIPGGVTMKIDPKTGVGTITLPDGKTLKMTITKDPNKNTTTITITPESSAGGS [r8_186_JUSTAS] | 1.53 ± 0.669 kJ/mol
9 | SAGKMYLIVIKVDGKEYVIVIPEEEMSEEEIRKLISEELGISEEEVEIVEIVPVEPGESVEEALKKALESAG [r5_900_TrROS_Hall] | 11.6 ± 0.586 kJ/mol
10 | SAGSKEFPFESEFEFEGYRVKVEVKVRVEFDENGKPTKNFKPEIKIEIKPLPPKPVITAEEALKLDPEKSAG [r14_442_TrMRF] | 0.477 ± 0.795 kJ/mol
11 | SAGGGPPSSMVKKTYTVTGTDPDALAAAVRAAIAAAHPDVEITEVTVSRDPSSDRYTVTVDVLSSVASAGGS [r8_120_JUSTAS] | 9.3 ± 0.151 kJ/mol

assay: folding stability dG unfold from chymotrypsin proteolysis; higher = more stable
Procedure, shortened: as §1

Row | Sequence | folding stability dG unfold
12 | SAMSVKTYSSTSVDPKTGKTYTTTTTVTPKPEPPWLVTTTTYLVDPATGTTTLLSTTTTTLDPNDPTLLSAG [r14_939_JUSTAS] | 11.2 ± 0.46 kJ/mol
13 | SAGGSAGGMLLSSEEELEEELKRVREEGIGEVEVQVVDEKGNIHTLPTFVENPGPEPLPNEKLLSAGGSAGG [r6_258_JUSTAS] | 2.69 ± 0.205 kJ/mol
14 | SAGGDTVTTTETFPEKPILTVTTTSFSPSGTTTTTTTTYEVENGKIVSKLSTTTTTTAVAPAPPGTASAGGS [r16_682_JUSTAS] | 4.38 ± 0.1 kJ/mol
15 | SAGGMKIKTKSGKELTLKKIKLKYKNKEYEIENLKIKAIKYDPKKKIVHIEVTHPNGKKYTFDLKIKSAGGS [r8_215_TrMRF] | 14.6 ± 0.36 kJ/mol
16 | SAGGSAGGSAKVVVDEVEVEVFKNEDGEEVLRVRFKKTGEEVEIPLEDLEKLELPPGAVVEPSAGGSAGGSA [r18_288_TrROS_Hall] | 7.69 ± 0.209 kJ/mol
17 | SAGGSTVTVTVRRRVRVEVNGELREFEVEVTVTVRLPPPPPVIELPPEQVTRIEWDEETQELRVEVDSAGGS [r8_28_TrROS_Hall] | 14 ± 0.264 kJ/mol
18 | SAGMTAEELAEELAKELEVEVTLENGEKRRVRVEVKVERLPDGTLLLTAKVENEETGETFEIKIEIKLESAG [r5_397_TrROS_Hall] | 18 ± 1.55 kJ/mol
19 | SAGGSAGGMVKVSSDPATGKVYVTYPGADPEAVAEKVKKEYGAKKIKVEKDPNKDVTTITITVESAGGSAGG [r6_662_JUSTAS] | 1.13 ± 0.586 kJ/mol
20 | SAGGSAGGGIDLSNPEDIEEALKKSGIVGVFKVKIIPLPGGKWKKIIEPVKLLPKEELEKAGLISAGGSAGG [r6_402_TrMRF] | 1.86 ± 0.502 kJ/mol
21 | SAGGSAFKGMPPEQVKRVIEIDHPNGKDIYIVRYKGPGHMMIFPPKEGKPIYIPMPLDEIKEFLLSSAGGSA [r15_810_TrROS] | 2.81 ± 0.544 kJ/mol
22 | SAGGSAGGSAGGKWIMVDSPEDIKEFAEDQGYKIKVDNVHPFPGDKNHYMVWIEIEPPGSAGGSAGGSAGGS [r10_126_TrROS] | 4.75 ± 0.753 kJ/mol
23 | SAGGWITPELIEEIAKTIAEENPENGKEVPIEVVIPFPNSVIKIEIEFDPSNGKIEIEDIKVIPPNDLSAGG [r13_37_TrROS] | 6.28 ± 0.502 kJ/mol
24 | SAGGGMLEVTREPSPDGVTRYVVTVPADRTVTVTRPDGTTTTTAAPDADAVITYTVPPGTPVAVSLTPSAGG [r13_82_JUSTAS] | -2.19 ± 1.17 kJ/mol
25 | ARELPVEEIREAVREFLRKHGFRVVSEEVVELPDGSVLVFVEAEPEDKSTRYRLVITRPVDGSVRLVIEPVS [r1_460_TrMRF] | 15.01 ± 0.046 kJ/mol
26 | SPSRPTLVTTYTFDPSGVPTATTKEITPEEVEELEKKGWKKLSEDPEKGLITLEKKLPTSPQKIEVTILPSA [r9_5_JUSTAS] | 0.306 ± 1.13 kJ/mol
27 | SAGGSAMRMERIKLPDGKDITIMRHPNEPRQYQLFFPGGRSISVNFPSPEEAIDHALEWIKNGKPFSAGGSA [r15_38_TrROS] | 3.2 ± 0.544 kJ/mol
28 | SAGGSAGGSAGIKIEWEPNPNGSWRMKIEIPNPNGNPKKIEVWANPNGKIREDEAKEILNSAGGSAGGSAGG [r11_759_TrROS] | 4.95 ± 1 kJ/mol
29 | SAGGSAGGSASYIPVTYSFFFPDKPYVERVEAEYELGPDGTPRILSAKVEVFPVDFSPDELSAGGSAGGSAG [r3_138_TrMRF] | 1.17 ± 0.669 kJ/mol
30 | SAGGSAGGLEIAKELGFEKIEIEEVKENRVVLKLKDKNGKEYKIEFEFDPETGEIKILKIEPLPSAGGSAGG [r6_526_TrMRF] | 17.5 ± 0.418 kJ/mol
31 | SAKTKTIEIEVKIKLIEIDPKTGKKTEKEFTAKATITYDEENNVVTIKIEFKDNGKTITITLPPGAKIKSAG [r14_587_TrROS_Hall] | 9.4 ± 0.586 kJ/mol
32 | SAGKVTVERDPSTNVVNVTVEVERERDVPPGAPVTETIIIPARVKFDEDGKLVEPISLDDILAAIRAAGSAG [r5_239_TrMRF] | 2.86 ± 0.397 kJ/mol
